The chains are these.
B1: LAG3 P11A2 aVH domain (VHH)
VHH: EVQLVESGGGLVQPGGSLRLSCAASSFNIKDTYIGWVRRAPGKGTELVAEIACHEGTTRYADSVKGRFTISCDTSKNTAYLQMNSLRAEDTAVYYCANTEYDDIFDYWGQGTTVTVSS
B2: LAG3 21B11 aVH domain (VHH)
VHH: EVQLVESGGGLVQPGGSLRLSCAASGFNIKDTCIGWVRRAPGKGTELVAEICQDIGYTRYADSVKGRFTISADTSKNTAYLQMNSLRAEDTAVYYCAADESVDNFKYWGQGTTVTVSS
B3: LAG3 P11E9 aVH domain (VHH)
VHH: B2 VHH with Q53H, D99E, S101H, D103A, N104S, K106E
B4: LAG3 P10D1 aVH domain (VHH)
VHH: B2 VHH with N28S, G35A, Q53E, D99K, S101A, V102G, D103V, N104G, K106D
notes: also called P110D1
B5: LAG3 P11E2 aVH domain (VHH)
VHH: B2 VHH with Q53D, A98S, D99Q, S101H, V102Q, D103W, N104S
B6: LAG3 9B4 aVH domain (VHH)
VHH: B2 VHH with D99V, S101V, V102A, D103E, N104Y, K106E
B7: LAG3 P9G1 aVH domain (VHH)
VHH: B2 VHH with A98G, D99E, S101G, V102A, D103T
B8: LAG3 19G3 aVH domain (VHH)
VHH: B2 VHH with D31Y, T32Q, Q53S, D54Y, I55D, D99E, D103E, N104G, K106I
notes: also called P19G3
B9: LAG3 17D7 aVH domain (VHH)
VHH: B2 VHH with Q53T, D99G, S101G, V102S, D103S, N104G, K106H
B10: LAG3 P21A03 aVH domain (VHH)
VHH: B2 VHH with Q53E, D99N, S101H, V102S, D103V, N104G, K106N
notes: also called 21A3
B11: LAG3 P10C3 aVH domain (VHH)
VHH: B2 VHH with Q53T, I55A, D99S, V102P, D103S, N104G, K106R

Where a chain is given by its changes, count along the chain named.

The target of this assay is T1, soluble human Lag3-IgG1-Fc with biotinylated C-terminal Avi-tag (human, biotin on the C-terminal Avi-tag).
T1 construct: also called LAG3-Fc-avi; biotinylated LAG3-Fc antigen
T1 sequence (chain, as listed by the source limits assumed): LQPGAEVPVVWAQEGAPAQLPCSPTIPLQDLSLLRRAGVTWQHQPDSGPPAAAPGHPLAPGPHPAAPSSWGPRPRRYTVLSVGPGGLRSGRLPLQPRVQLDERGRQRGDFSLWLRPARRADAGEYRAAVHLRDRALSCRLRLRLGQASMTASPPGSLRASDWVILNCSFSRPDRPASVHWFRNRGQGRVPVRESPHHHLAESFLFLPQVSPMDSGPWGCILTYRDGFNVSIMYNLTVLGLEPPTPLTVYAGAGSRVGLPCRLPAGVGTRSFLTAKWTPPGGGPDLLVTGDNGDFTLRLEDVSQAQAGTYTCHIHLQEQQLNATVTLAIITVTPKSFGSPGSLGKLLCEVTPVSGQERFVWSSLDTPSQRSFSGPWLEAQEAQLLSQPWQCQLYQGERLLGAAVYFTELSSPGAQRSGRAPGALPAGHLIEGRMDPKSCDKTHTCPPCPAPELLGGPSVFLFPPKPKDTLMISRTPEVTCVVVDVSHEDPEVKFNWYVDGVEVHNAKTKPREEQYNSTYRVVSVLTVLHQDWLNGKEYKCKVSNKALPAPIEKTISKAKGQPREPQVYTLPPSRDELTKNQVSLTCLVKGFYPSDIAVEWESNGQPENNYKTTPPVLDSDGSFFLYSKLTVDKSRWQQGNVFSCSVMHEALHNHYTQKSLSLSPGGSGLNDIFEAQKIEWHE
The assay can be described thus: SPR (ProteOn XPR36), biotinylated LAG3-Fc captured on NLC chip, purified aVH as analyte, 25 C.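 Also: One-shot kinetics in PBST running buffer, rates fitted by 1:1 Langmuir model fitting association and dissociation together, KD as koff/kon, biotinylated Fc surface as negative control.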
One may read the Kd as the constant that tells how readily two partners part at equilibrium. Broadly, the koff is the first-order rate constant of dissociation. Higher therefore signals a short-lived complex. In general, kon refers to a measure of how fast the partners come together. B1 gave a Kd of 55 nM, a koff of 0.0138 s⁻¹ and a kon of 251000 M⁻¹ s⁻¹.

Regarding B2, binding was characterised by a dissociation constant (Kd) of 43 nM, the koff is 0.00217 s⁻¹ and the kon came out at 62700 M⁻¹ s⁻¹.

B3 came in with a Kd of 6.81 nM, a koff of 0.000656 s⁻¹ and a kon of 96300 M⁻¹ s⁻¹.

The molecule B4 yielded a Kd of 27 nM, a koff of 0.00383 s⁻¹ and a kon of 144000 M⁻¹ s⁻¹.

B5 returned a Kd of 36.7 nM, a koff of 0.00157 s⁻¹ and a kon of 42800 M⁻¹ s⁻¹.

Turning to B6, the Kd is 86 nM, the koff amounted to 0.00314 s⁻¹ and the kon came out at 36500 M⁻¹ s⁻¹.

In turn, B7 returned a Kd of 5.1 nM, a koff of 0.000829 s⁻¹ and a kon of 162000 M⁻¹ s⁻¹.

With B8, the Kd is 766 nM, the koff is 0.00466 s⁻¹ and the kon amounted to 6080 M⁻¹ s⁻¹.

Turning to B9, binding was characterised by a dissociation constant (Kd) of 311 nM, the koff turned out to be 0.00493 s⁻¹ and the kon turned out to be 15900 M⁻¹ s⁻¹.

B10 returned a Kd of 13.7 nM, a koff of 0.000387 s⁻¹ and a kon of 28200 M⁻¹ s⁻¹.

B11: the Kd stood at 38.5 nM, the koff is 0.00217 s⁻¹ and the kon was 56200 M⁻¹ s⁻¹.

The values above are taken from patent publication US20200354457A1 (Hoffmann-La Roche, published 2020).
